Measured values published in publication PMC3597468 (Journal of controlled release : official journal of the …, 2012).

Biological target: the molecule itself
Assay: cross-linking

B1: Catalase, from bovine liver (enzyme, UniProt P00432 1-527, looked up)
chain: MADNRDPASDQMKHWKEQRAAQKPDVLTTGGGNPVGDKLNSLTVGPRGPLLVQDVVFTDEMAHFDRERIPERVVHAKGAGAFGYFEVTHDITRYSKAKVFEHIGKRTPIAVRFSTVAGESGSADTVRDPRGFAVKFYTEDGNWDLVGNNTPIFFIRDALLFPSFIHSQKRNPQTHLKDPDMVWDFWSLRPESLHQVSFLFSDRGIPDGHRHMNGYGSHTFKLVNANGEAVYCKFHYKTDQGIKNLSVEDAARLAHEDPDYGLRDLFNAIATGNYPSWTLYIQVMTFSEAEIFPFNPFDLTKVWPHGDYPLIPVGKLVLNRNPVNYFAEVEQLAFDPSNMPPGIEPSPDKMLQGRLFAYPDTHRHRLGPNYLQIPVNCPYRARVANYQRDGPMCMMDNQGGAPNYYPNSFSAPEHQPSALEHRTHFSGDVQRFNSANDDNVTQVRTFYLKVLNEEQRKRLCENIAGHLKDAQLFIQKKAVKNFSDVHPEYGSRIQALLDKYNEEKPKNAVHTYVQHGSHLSAREKANL
- binding result: binds
